Laboratory results as given in the RNAGym collection of RNA variant scans (doi:10.1073/pnas.2313332121).
This sample holds only a part of the variants without activity.

B1: TPR 5TU (parent)
chain: GGAUCUUCUCGAUCUAACAAAAAAGACAAAUCUGCCACAAAGCUUGAGAGCAUCUUCGGAUGCAGAGGCGGCAGCCUUCGGUGGCGCGAUAGCGCCAACGUUCUCAACUAUGACACGCAAAACGCGUGCUCCGUUGAAUGGAGUUUAUCAUG

Variants of: B1
Test: polymerase ribozyme fitness, log enrichment relative to wild type (log ratio); higher = more active; in vitro selection for triplet polymerase activity
Outline: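 The heterodimeric triplet polymerase ribozyme's subunits were each mutagenized into PCR-built libraries and transcribed. Every library was selected once, in triplicate, by annealing with a biotinylated primer, the partner subunit and triplets, incubating frozen at −7 °C, gel-excising extended constructs, capturing on streptavidin beads and running RT-PCR. Input and output libraries were Illumina-sequenced, with genotypes kept only at ≥10 input reads and ≥1 read per output. Fitness, from inverse-variance-weighted replicate averages, is the base-2 logarithm of genotype enrichment over wild-type enrichment.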

Compared with GGAUCUUCUCGAUCUAACAAAAAAGACAAAUCUGCCACAAAGCUUGAGCGCGUCUUCGGAUGCAGAGGCGGCAGCCUUCGGUAGCGCGAUAGCGCCAACGUGCUCAACUAUGACACGCAAAACGCGUGCUCCGGUGAAUGGAGUUUAUCAUG, GGAUCUUCUCGAUCUAACAAAAAAGACAAAUCUGCCACAAAGCUUGAGCGAAUCUUCGGAUGCAGAGGCGGCAGCCUUCGGUGGCGCGAUAGCGCCAAUGUUCUCAACUAUGACACGCAAAACGCGUGCUCGGUUGAAUGGAGUUUAUCAUG is lower in “polymerase ribozyme fitness (log ratio)” value: -3.78 for the first, no more than -4.2 for the second.

First: GGAUCUUCUCGAUCUAACAAAAAAGACAAAUCUGCCACAAAGCUUGAGCGCAUCUUUGGAUGCAGAGGCGGCAGCCUUCGGUGGCGCGAUAGCGCCAACGGUCUCAACUAUGACACGCAAAACGCGUGCUCCGUUGAAUGGAGUUUAUCAUG
Second: GGAUCUUCUCGAUCUAACAAAAAAGACAAAUCUGCCACAAAGCUUGAGCGCCUCUUAGGAUGCAGAGGCGGCAGCCUUCGGUGGCGCGAUUGCGCGAACGUUCUCAACUAUAACACUCAAAACGCGUGCUCCGUUGAAUGGACUUUAUCGUG
The “polymerase ribozyme fitness (log ratio)” value of the first is higher: -2.69 for the first, no more than -4.2 for the second.

First: GGAUCUUCUCGAUCUAACAAAAAAGACAAAUCUGCCACAAAGCUUGAGCGCGUCUUCCGAUGCAGAGGCGGCAGCCUUCGGUGACGCGAUAGCGCCAACGUUCUCAACUAUGACACGCAAAACGCGUGCUGCCUUGAAUGGAGUAUAUCAUG
Second: GGAUCUUCUCGAUCUAACAAAAAAGACAAAUCUGCCACAAAGCUUGAGCGGAUCUUCGGAUGCAGAGGCGGCAGCCUUCGGUGGCGCGAUAGCGCCAACGUUCUCAACUAUGACACGCAAAACGCGUGCUCCGUUGAAUGGAGUUUAUCAUG
The “polymerase ribozyme fitness (log ratio)” value of the first is lower: no more than -4.2 for the first, -4.14 for the second.

GGAUCUUCUCGAUCUAACAAAAAAGACAAAUCUGCCACAAAGCUUGAGCGCAUUUUCGGAUGCAGAGGCGGCAGCCUUCGGUGGCGCGAUAGCGCCAACGUUCUCAACUAUGACACGCAAAACGCGUGCUCCGUUGAAUGGAGUUUAUCAUG and GGAUCUUCUCGAUCUAACAAAAAAGACAAAUCUGCCACAAAGCUUGAGCGCAUCUUCGGAUGCAGAGGCGGCAGCCUUCGGUGGCGCGUUACCGCCAACGUUCGCAACUAUGACACGCAAAACGCGGGCUCCGUUGAAUGGGGUUUAUCAUG cannot be ordered by “polymerase ribozyme fitness (log ratio)” value: no more than -4.2 for the first, no more than -4.2 for the second.

GGAUCUUCUCGAUCUAACAAAAAAGACAAAUCUGCCACAAAGCUUGAGCGCAUUAUCGGAUGCAGAGGCGGCAGCCUUCGGUGGCGCGAUUGCGCCAACGUUCUCAAUUAUGACACGCAAAACGCGUGCUCCGUUGAAUGGAGUUUAUCAUA and GGAUCUUCUCGAUCUAACAAAAAAGACAAAUCUGCCACAAAGCUUGAGCGCUUCUUCGGAUGCAGAGGCGGCAGCCUUCGGUGGCGCGAUAGCGCCAACGUUCUCAACUAUGACACGCAAAACGCGUGCUCCGUUGAUUGGAGUUUAUCAUG cannot be ordered by “polymerase ribozyme fitness (log ratio)” value: no more than -4.2 for the first, no more than -4.2 for the second.

First: GGAUCUUCUCGAUCUAACAAAAAAGACAAAUCUGCCACAAAGCUUGAGCGCAUCUUCGGAUGCAGAGGCGGCAGCCUUCGGUGGCGCGUUAGCGCCAACGUUCUCAACUAUGACACGCAAAACGCGUGCUCCGUUGAUUGGAGUUUAUCAUG
Second: GGAUCUUCUCGAUCUAACAAAAAAGACAAAUCUGCCACAAAGCUUGAGCGCCUCUCCGGAUGCAGAGGCGGCAGCCUUCGGUGGCGGGAUAGCGUCAGCGUUCUCACCUAUGACACGCGAAACGCGUGCUCCGUUGAAUGGAGUUUAUCAUG
The “polymerase ribozyme fitness (log ratio)” value of the first is lower: no more than -4.2 for the first, -4.17 for the second.

GGAUCUUCUCGAUCUAACAAAAAAGACAAAUCUGCCACAAAGCUUGAGCGCAUCUUCGGAUGCAGAGGCGGAAGCCUUCGGUGGCGCGAUAGCGCCAACGUUCUCAAAUAUGACACGCAAAACGCGUGCUCCGUGGAAUGGAGUUUAUCAUG and GGAUCUUCUCGAUCUAACAAAAAAGACAAAUCUGCCACAAAGCUUGAGCGCAUUUUCGGAUGCAGAGGCGGCAGCCUUCGGUGGCCCCAUAGCGCCAACGUUCUCAACUAUGACACGCAAAACGCGUGCUCCGUUGAUUGGAGUUUAUCAUG cannot be ordered by “polymerase ribozyme fitness (log ratio)” value: no more than -4.2 for the first, no more than -4.2 for the second.

Going from GGAUCUUCUCGAUCUAACAAAAAAGACAAAUCUGCCACAAAGCUUGAGCGCAUCUUCGGAUGCAGAGGCGGCAGCCUUGGGUGGCGCGAUAGCCCCAACGUUCUCAACUAUGACACGCAAAACGCGUGCUCCGUUGAAUGGAGUUUAUCAUG to GGAUCUUCUCGAUCUAACAAAAAAGACAAAUCUGCCACAAAGCUUGAGCGCAUCUUCGGAUGCAGAGGCGGCAGCCUUCGGUGGCGCGAUAGCGCCAACGUUCUCGACUAUGACACGCAAAACGCGUGCUCCGUUGAAUGGAGUUUAUCAUG, the “polymerase ribozyme fitness (log ratio)” value rises from no more than -4.2 to -4.12.

GGAUCUUCUCGAUCUAACAAAAAAGACAAAUCUGCCACAAAGCUUGAGCGCAUCUUCGGAUGCAGAGGCGGCAGGCUUCGGUUGCGCGAUAGCGCCAACGUUCUCAACUAUGACACGCAAAACGCGUGCUCCGUUGAAUGAAGUUAAUCAUG and GGAUCUUCUCGAUCUAACAAAAAAGACAAAUCUGCCACAAAGCUUGAGCGCGUCUUCGGAUGCAGAGGCGGCAGCCUUCGGUGGUGCGAUAGCGCCAACGGUCUCAACUAUGACACGCAAAACGCGGGCUCCGUUGAAUGGAGGUUAUCAUG cannot be ordered by “polymerase ribozyme fitness (log ratio)” value: no more than -4.2 for the first, no more than -4.2 for the second.

In the case of GGAUCUUCUCGAUCUAACAAAAAAGACAAAUCUGCCACAAAGCUUGAGCGCAUCUUUGGAUGCAGAGGCGGCAGCCUUCGGUGGCGCGAUAGCGCCAACGUUCUCAACUAUGACACGCAAAACGCGUGCUCCGUUGAAUGGAGUUUAUCAUG, the “polymerase ribozyme fitness (log ratio)” value is reported as -3.72.
